{"source": "patent EP0526502B1", "about": "“PHENOLIC AMINE DEPIGMENTING AND ANTIMELANOMA AGENTS” (The Governors of the University of Alberta, priority 1990, dated 1991)", "substrate": "NCCSc1ccc(O)cc1", "experiment": "Enzyme kinetics with monoamineoxidase (substrate disappearance by HPLC, Lineweaver-Burk)", "format": "biochemical", "conditions": "other: plasma monoamine oxidase, 0.005 unit/ml, pH 7.4, 37°C", "description": "Mushroom tyrosinase (400 units/mg) and plasma MAO (1000 units/gm) were obtained from Sigma Chemical Co. (St. Louis, MO, USA). A reaction mixture consisted of a substrate of 7 to 8 different concentrations (40 to 500 »M for mushroom tyrosinase and 20 to 200 »M for MAO) and of either mushroom tyrosinase (2.5 »g) or MAO (10 »g) in 1.0 mL of 0.05 M sodium phosphate buffer, pH 6.8 and 7.4 respectively. The reactions were carried out at 37°C in a shaking water bath, and stopped by taking 100 »L of the reaction mixture and adding it to 900 »L of 0.4 M HCLO₄. The disappearance of substrate was followed using HPLC (high pressure liquid chromatography) Km and Vmax values were calculated from the Lineweaver-Burk plots."}
{"protein": "plasma MAO (Bos taurus) (protein, purchased Sigma Chemical Co. (St. Louis, MO, USA)) REEGGVGSEEGVGKQCHPSLPPRCPSRSPSDQPWTHPDQSQLFADLSREELTTVMSFLTQQLGPDLVDAAQARPSDNCVFSVELQLPPKAAALAHLDRGSPPPAREALAIVFFGGQPQPNVTELVVGPLPQPSYMRDVTVERHGGPLPYYRRPVLLREYLDIDQMIFNRELPQAAGVLHHCCSYKQGGQKLLTMNSAPRGVQSGDRSTWFGIYYNITKGGPYLHPVGLELLVDHKALDPADWTVQKVFFQGRYYENLAQLEEQFEAGQVNVVVIPDDGTGGFWSLKSQVPPGPTPPLQFHPQGPRFSVQGNRVASSLWTFSFGLGAFSGPRVFDVRFQGERLAYEISLQEAGAVYGGNTPAAMLTRYMDSGFGMGYFATPLIRGVDCPYLATYMDWHFVVESQTPKTLHDAFCVFEQNKGLPLRRHHSDFLSHYFGGVAQTVLVFRSVSTMLNYDYVWDMVFYPNGAIEVKLHATGYISSAFLFGAARRYGNQVGEHTLGPVHTHSAHYKVDLDVGGLENWVWAEDMAFVPTAIPWSPEHQIQRLQVTRKQLETEEQAAFPLGGASPRYLYLASKQSNKWGHPRGYRIQTVSFAGGPMPQNSPMERAFSWGRYQLAITQRKETEPSSSSVFNQNDPWTPTVDFSDFINNETIAGKDLVAWVTAGFLHIPHAEDIPNTVTVGNGVGFFLRPYNFFDQEPSMDSADSIYFREGQDAGSCEINPLACLPQAATCAPDLPVFSHGGYPEY", "values": [{"measurement": "Km", "value": 52.6, "unit": "µM"}]}
